# Assay results: patent US20100028862A1 (REPLIDYNE, published 2010)
# T1: P. aeruginosa χ subunit (untagged) (Pseudomonas aeruginosa, UniProt O68823 2-142)
# T1 construct: holC, PA3832, 142 amino acids; also called HolC; chi
# T1 sequence: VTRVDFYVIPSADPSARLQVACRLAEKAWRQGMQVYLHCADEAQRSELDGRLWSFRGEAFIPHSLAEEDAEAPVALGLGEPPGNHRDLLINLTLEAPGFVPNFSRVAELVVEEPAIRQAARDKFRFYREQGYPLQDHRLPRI
# T2: N-terminally hexa-His-tagged P. aeruginosa χ (Pseudomonas aeruginosa, UniProt O68823 2-142)
# T2 construct: also called immobilized tagged P. aeruginosa χ; N-terminally His-tagged HolC; not shown: N-terminal hexa-His tag encoded by vector pA1-NB-KpnI
# T2 sequence: T1 sequence
# B1: PA4679N45 protein, P. aeruginosa DNA polymerase III holoenzyme ψ subunit (other)
# chain: LIEEQRRRAFLGAMQITSWLPRQPLPFAAPSRPELLETPPREEPAVPVRARAAIDAPQARVPQAEAPASAPSVAPAAPVEGRGIPISLPKPGAPAAKKAEPVAPVEEAPAESPAVQAPPPRFALQLLQAGSCTLLVELPTGEPFASRDPGYLLLRDLLRAAGLPDSPRLIGEPVRWPLLARGNLDQGPQAALEFVQSFVAARMEESERSRCLWLVGLPAIRFAGEGDEGSLFRELQVDGLGATWAVPGLEALMEEPALKGELWRAMRRVRQRWSSEIQ
# notes: also called HolD; psi
# Assays:
# DnaA (Escherichia coli) = conditions: minimum DnaA concentration giving plateau in origin reconstitution assay; ATP, Mg; gel shift and filter binding mentioned without values
# [1] = test system: DnaG primase (Yersinia pestis)
# [2] = test system: PolC (Streptococcus pyogenes); conditions: reconstitution assay; template inferred
# [3] = test system: DnaG primase (Pseudomonas aeruginosa); conditions: reconstituted P. aeruginosa holoenzyme assay, 22 C
# [4] = test system: DNA polymerase III core (alpha-epsilon-theta) (Yersinia pestis)
# [5] = biological target: DNA polymerase III alpha-epsilon (DnaE/DnaQ) (Pseudomonas aeruginosa) (UniProt Q9HXZ1+G3XD54); conditions: E. coli DnaG-primed holoenzyme assay, 30 C
# [6] = biological target: T1, P. aeruginosa χ subunit (untagged); experiment: co-expression and co-purification (ammonium sulfate, Q Sepharose)
# [7] = biological target: T2, N-terminally hexa-His-tagged P. …; experiment: Ni-NTA magnetic bead pull-down with immobilized His-tagged χ, imidazole elution
molecule,measurement,setting,value
M13 ssDNA with 306-nt insert containing DnaA-box hairpin,activity,DnaA (Escherichia coli),76 nM
M13Gori ssDNA,activity,[1],5.8e+06 U/mg
same,activity,[2],500000 U/mg
same,activity,[3],594000 U/mg
same,activity,[4],1.1e+07 U/mg
same,activity,[5],4.1e+06 U/mg
B1,binding result,[6],binds
same,binding result,[7],binds
